Assay [1] concerns the target recombinant human EGFRvIII protein, native (human) (UniProt P00533). Put plainly: ELISA on coated native recombinant antigen; Exp 1. For orientation: In an ELISA, binding on a coated surface is turned into a signal by an enzyme label.
For assay [2], the target named is recombinant human wild-type EGFR protein, native (human) (UniProt P00533). Put plainly: ELISA on coated native recombinant antigen; Exp 1.
The target of assay [3] is recombinant human EGFRvIII protein, denatured (human) (UniProt P00533). Put plainly: ELISA on coated denatured recombinant antigen; Exp 2, mAb 1 µg/ml.
The target in assay [4] is recombinant human wild-type EGFR protein, denatured (human) (UniProt P00533). Put plainly: ELISA on coated denatured recombinant antigen; Exp 1.
The target of assay [5] is recombinant human EGFRvIII protein, denatured (human) (UniProt P00533). The assay is described as above.
Assay [6] concerns the target recombinant human EGFRvIII protein, native (human) (UniProt P00533). Put plainly: ELISA on coated native recombinant antigen; Exp 2, mAb 1 µg/ml.
For assay [7], the target named is recombinant human wild-type EGFR protein, native (human) (UniProt P00533). The assay is described as above.
The target of assay [8] is recombinant human wild-type EGFR protein, denatured (human) (UniProt P00533). Put plainly: ELISA on coated denatured recombinant antigen; Exp 2, mAb 1 µg/ml.

With 225 monoclonal antibody (ATCC HB-8508), the ELISA absorbance (405 nm) is 1.08 A405 in assay [1]; 1.2 A405 in assay [2]; 0.004 A405 in assay [3]; -0.01 A405 in assay [4]; 0.001 A405 in assay [5]; 1.5 A405 in assay [6]. The ELISA absorbance (405 nm) in assay [7] was 1.32 A405.

Take Neg ctrl mouse mAb (antibody): the ELISA absorbance (405 nm) in assay [8] is 0 A405; in assay [6], -0.001 A405.
